Laboratory results published in PMC10881741, “Structural modifications toward improved lead-203/lead-212 peptide-based image-guided alpha-particle radiopharmaceutical therapies for neuroendocrine tumors” (European Journal of Nuclear Medicine and Molecular Imaging, 2023).
Where two headings read alike, the source gives them in different places.

Experiments:
[1] = In vivo biodistribution of ^203Pb-labeled peptides; set-up: species or system mice; conditions: female, athymic nu/nu, mouse, intravenous, 37 kBq, total radioactivity; for tissue uptake at 3 h: 3 h post-administration; for tissue uptake at 24 h: 24 h post-administration; for tissue uptake at 1 h: 1 h post-administration
Experimental: AR42J cells (5.0 × 10^6 cells/animal) were implanted subcutaneously on the left shoulder of female athymic nu/nu mice. […] Extra groups of mice were co-administered 37 kBq of ^203Pb-PSC-PEG2-TOC with DL-lysine (400 mg/kg) to determine the effect of amino acid on renal uptake of the radiopharmaceutical. Mice (n=3 per time point) were euthanized at 1, 3, and 24 h post-administration, and tumors and organs/tissues of interest were excised and weighed. The radioactivities of the samples were measured using the gamma counter.

[2] = Stability in water and human serum (radio-HPLC); type: in vitro ADME; conditions: ^203Pb-labeled, 37 °C, up to 24 h
Excerpt: New peptides were designed and synthesized using standard fluorenylmethyloxycarbonyl (Fmoc)-based solid phase peptide synthesis. The peptides were developed under two basic strategies: (a) a click cyclization approach to substitute the disulfide bond of TOC with a triazole link, which potentially improves PK and in vivo stability; and (b) Pb-specific structural optimization based on TOC by incorporating the new chelator composition and various sizes of PEG linkers (Fig. 1 and Table 1). […] The radiolabeling and purification process for the preparation of ^203Pb/^212Pb-labeled peptides followed the methods outlined in a previously published study. […] The stability of the most promising RPDC, [^203Pb]Pb-PSC-PEG2-TOC, was evaluated in water and normal human serum up to 24 h of incubation at 37 °C using the radio-HPLC system. Furthermore, PSC-PEG2-TOC was assessed for a radiolabeling yield with clinically relevant ^203Pb activity (1.8–3.6 GBq) to assess changes in performance with increases in molar activity (MBq/nmol; Supplementary Material).
PSC-PEG2-TOC was characterized for stability in water and human serum. […] The penetrate by centrifugation (serum samples) or the samples in water were analyzed by a radio-HPLC system (Agilent 1200 Series connected with an IN/US β-RAM Model 4 radio-detector) to monitor the degree of peptide degradation.

[3] = biological target: T1, SSTR2 (Rattus norvegicus, UniProt P30680); assay: In vitro competitive binding assay ([^125I]I-TOC displacement in AR42J cells)
T1 construct: host or cells: AR42J rat pancreatic acinar cells
T1 sequence (P30680 whole entry): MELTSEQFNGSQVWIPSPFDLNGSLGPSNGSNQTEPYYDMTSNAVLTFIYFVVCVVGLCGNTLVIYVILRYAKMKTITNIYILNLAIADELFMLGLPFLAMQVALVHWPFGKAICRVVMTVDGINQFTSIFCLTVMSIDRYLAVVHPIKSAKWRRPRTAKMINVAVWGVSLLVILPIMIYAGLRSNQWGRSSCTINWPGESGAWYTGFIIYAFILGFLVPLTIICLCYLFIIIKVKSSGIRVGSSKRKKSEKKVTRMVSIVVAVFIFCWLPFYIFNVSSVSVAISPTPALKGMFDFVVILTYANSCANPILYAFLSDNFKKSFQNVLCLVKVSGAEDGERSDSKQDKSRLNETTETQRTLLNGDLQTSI
Experimental: SSTR2-positive AR42J rat pancreatic acinar cells were purchased from the American Type Culture Collection (ATCC; CRL-1492) and were cultured in RPMI 1640 medium, supplemented with 10% fetal bovine serum (FBS), 2 mM glutamine, and antibiotics (0.1 mg/mL streptomycin and 100 IU penicillin) at 37 °C under a humidified condition (5% CO2). The cells were plated into poly-D-lysine-coated 24-well plates at a density of 1.0 × 10^5 cells per well. […] Cells were then washed twice with ice-cold PBS and lysed with 0.5 N NaOH. The radioactivities of the harvested samples were measured using an automated gamma counter (PerkinElmer Cobra II; PerkinElmer, Freemont, CA). IC50 was determined using GraphPad Prism V8.0.

[4] = system: midgut NETs; set-up: method as in PMID 28076709, PMID 28428192; conditions: patients with midgut NETs ref 5, 6; cited from earlier work
[5] = large intestine, read-out: Large intestine
[6] = small intestine, read-out: Small intestine

Work on C[C@@H](O)[C@@H]1NC(=O)[C@H](CCCCN)NC(=O)[C@@H](Cc2c[nH]c3ccccc23)NC(=O)[C@H](Cc2ccc(O)cc2)NC(=O)[C@@H](NC(=O)[C@@H](Cc2ccccc2)NC(=O)CN2CCN(CC(=O)O)CCN(CC(=O)O)CCN(CC(=O)O)CC2)CSSC[C@@H](C(=O)N[C@H](CO)[C@@H](C)O)NC1=O [[^203Pb]Pb-DOTATOC, metal not drawn, reference compound] yielded a tissue uptake at 3 h ([1]; blood, read-out: Blood) of 0.02 %ID/g, a tissue uptake at 24 h ([1]; blood, read-out: Blood) of 0.01 %ID/g and a tissue uptake at 1 h ([1]; brain, read-out: Brain) of 0.03 ± 0.01 %ID/g. The tissue uptake at 3 h ([1]; brain, read-out: Brain) was 0.01 %ID/g, the tissue uptake at 24 h ([1]; brain, read-out: Brain) was 0.01 %ID/g and the tissue uptake at 3 h ([1]; heart, read-out: Heart) was 0.07 ± 0.05 %ID/g. It also gave a tissue uptake at 24 h ([1]; heart, read-out: Heart) of 0.02 ± 0.01 %ID/g, a tissue uptake at 1 h ([1]; kidneys, read-out: Kidneys) of 12.2 %ID/g and a tissue uptake at 3 h ([1]; kidneys, read-out: Kidneys) of 14.6 ± 2.34 %ID/g. For the same compound, the tissue uptake at 24 h ([1]; kidneys, read-out: Kidneys) was 7.6 %ID/g, the tissue uptake at 1 h [1, 5] was 0.32 ± 0.12 %ID/g and the tissue uptake at 3 h [1, 5] was 1.11 ± 0.74 %ID/g. It also gave a tissue uptake at 24 h [1, 5] of 0.17 ± 0.04 %ID/g, a tissue uptake at 1 h ([1]; liver, read-out: Liver) of 0.28 ± 0.05 %ID/g and a tissue uptake at 3 h ([1]; liver, read-out: Liver) of 0.16 ± 0.02 %ID/g. It also gave a tissue uptake at 24 h ([1]; liver, read-out: Liver) of 0.08 ± 0.01 %ID/g, a tissue uptake at 1 h ([1]; lung, read-out: Lung) of 0.91 ± 0.41 %ID/g and a tissue uptake at 3 h ([1]; lung, read-out: Lung) of 0.59 ± 0.23 %ID/g. It also gave a tissue uptake at 24 h ([1]; lung, read-out: Lung) of 0.27 ± 0.04 %ID/g, a tissue uptake at 1 h ([1]; muscle, read-out: Muscle) of 0.1 ± 0.03 %ID/g and a tissue uptake at 3 h ([1]; muscle, read-out: Muscle) of 0.04 ± 0.01 %ID/g. It also gave a tissue uptake at 24 h ([1]; muscle, read-out: Muscle) of 0.02 %ID/g, a tissue uptake at 1 h [1, 6] of 1.91 ± 0.8 %ID/g and a tissue uptake at 3 h [1, 6] of 1.78 ± 2.19 %ID/g. For the same compound, the tissue uptake at 24 h [1, 6] was 0.08 ± 0.06 %ID/g, the tissue uptake at 1 h ([1]; spleen, read-out: Spleen) was 0.27 ± 0.05 %ID/g and the tissue uptake at 24 h ([1]; spleen, read-out: Spleen) was 0.1 ± 0.01 %ID/g. The tissue uptake at 1 h ([1]; tumor, read-out: Tumor) was 4.6 ± 0.18 %ID/g, the tissue uptake at 3 h ([1]; tumor, read-out: Tumor) was 4.47 ± 0.75 %ID/g and the tissue uptake at 24 h ([1]; tumor, read-out: Tumor) was 2.44 ± 0.19 %ID/g.
For C[C@@H](O)[C@@H]1NC(=O)[C@H](CCCCN)NC(=O)[C@@H](Cc2c[nH]c3ccccc23)NC(=O)[C@H](Cc2ccc(O)cc2)NC(=O)[C@@H](NC(=O)[C@@H](Cc2ccccc2)NC(=O)CCOCCOCCNC(=O)CN2CCN(CC(=O)O)CCN(CC(N)=O)CCN(CC(=O)O)CC2)CSSC[C@@H](C(=O)N[C@H](CO)[C@@H](C)O)NC1=O [PSC-PEG2-TOC, PSC-PEG2-D-Phe-cyclo[Cys-Tyr-D-Trp-Lys-Thr-Cys]-Thr-OH], the “Radiochemical and metabolic stability” value [2] was “robust radiochemical stability” and the “Improvement in affinity vs. DOTATOC (factor)” value [3] was over 2.
In the case of [^177Lu]Lu-DOTATATE, the Complete response rate [4] is given as 1% and the Objective responses [4] is given as 18–30%.
